Drawing on article PMC3239198, this text covers Ki and Kd for two sequences.

The target of data set [1] is His-tagged TetR (Tet repressor) (UniProt P04483). Description: competition EMSA.
For data set [2] the target is unchanged. Description: competition EMSA. The source holds these as a separate data set. On the technique in general: Mobility shift assays separate free from complexed probe on a gel.
The target is the same in data set [3]. In words: EMSA.

pKd, pKi: −log10 of the molar value. Like-named read-outs stand apart in the source and are kept apart here.

His-tagged TetR (Tet repressor), sequence (P04483 whole entry): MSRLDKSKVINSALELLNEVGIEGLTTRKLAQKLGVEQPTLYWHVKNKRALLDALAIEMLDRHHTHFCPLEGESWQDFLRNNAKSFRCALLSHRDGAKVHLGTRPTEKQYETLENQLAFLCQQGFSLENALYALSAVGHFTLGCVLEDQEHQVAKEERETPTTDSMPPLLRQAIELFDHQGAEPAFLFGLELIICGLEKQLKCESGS

In general, pKi refers to −log10 of the Ki, conventionally taken in molar units. Read a low pKi as a large Ki. Consider “GGGAGAUACGCGUAUCAAGCAGCAUGUUAUGGGUCAUCACAGACCAGAGAAAAGCUUGAUACGCGAAAGGAG [TetR aptamer 12-1R (pDA1), active]”, for which the pKi was 7.12 in data set [1] and 7.24 in data set [2]. One may read the pKd as the Kd on a negative log10 scale, so that one unit is a factor of ten. The low end stands for a high Kd, the high end for a low Kd. Consider “TTGACACTCTATCATTGATAGAGTTAT (double strand) [tetO dsDNA (ODA68/ODA69)]”, for which the pKd in data set [3] is 7.22.
